Experiments:
[1] = target: T1, CpNDH2 (CpNDH2-WT; MBP-CpNDH2) (Cryptosporidium parvum, UniProt F0X6E5); test: inhibition of menadione reduction, NADH oxidation at […] nm; assay type: biochemical
T1 construct: gene cgd7_1900; full-length ORF (568 predicted residues), N-terminal MBP fusion from pMAL-c5X, E. coli BL21(DE3), amylose-resin purified

[2] = system: CC1=CC(=O)c2ccccc2C1=O; test: purified protein; conditions: 400 μM NADH, pH 7.0, 25 °C, 0.1% Triton X-100, Michaelis-Menten
[3] = system: CC(C)=CCC/C(C)=C/CC/C(C)=C/CC/C(C)=C/CC1=C(C)C(=O)c2ccccc2C1=O; test: purified protein; conditions: 400 μM NADH, pH 7.0, 25 °C, 0.1% Triton X-100, intact MBP fusion, Michaelis-Menten
[4] = system: COC1=C(OC)C(=O)C(C/C=C(\C)CCC=C(C)C)=C(C)C1=O; test: purified protein; conditions: 400 μM NADH, pH 7.0, 25 °C, 0.1% Triton X-100, intact MBP fusion, positive cooperativity
[5] = system: CC(C)N=c1cc2n(-c3ccc(Cl)cc3)c3ccccc3nc-2cc1Nc1ccc(Cl)cc1; test: purified protein; conditions: 400 μM NADH, pH 7.0, 25 °C, 0.1% Triton X-100, intact MBP fusion, positive cooperativity

T1 sequence (F0X6E5 entry or part of it): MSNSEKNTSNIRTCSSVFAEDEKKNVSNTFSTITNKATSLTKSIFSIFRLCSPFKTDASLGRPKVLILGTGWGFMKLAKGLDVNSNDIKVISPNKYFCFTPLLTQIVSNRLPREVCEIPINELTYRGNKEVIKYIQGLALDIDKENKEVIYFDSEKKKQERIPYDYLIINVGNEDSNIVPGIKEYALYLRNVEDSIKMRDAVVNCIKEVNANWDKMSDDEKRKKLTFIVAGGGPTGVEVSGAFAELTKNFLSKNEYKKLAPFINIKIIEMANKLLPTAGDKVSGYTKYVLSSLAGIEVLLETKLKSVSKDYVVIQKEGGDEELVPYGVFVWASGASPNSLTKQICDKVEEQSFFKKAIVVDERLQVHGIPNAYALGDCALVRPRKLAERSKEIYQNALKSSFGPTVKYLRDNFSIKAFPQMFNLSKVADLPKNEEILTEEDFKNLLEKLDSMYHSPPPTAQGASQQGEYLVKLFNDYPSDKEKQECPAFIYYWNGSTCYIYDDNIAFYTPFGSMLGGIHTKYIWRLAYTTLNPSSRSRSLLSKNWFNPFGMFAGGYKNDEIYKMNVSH

Compound | IC50 [1] [nM] | Km [2] [µM] | Km [3] [µM] | K0.5 [4] [µM] | K0.5 [5] [µM]
CC(C)/N=c1\cc2n(-c3ccc(Cl)cc3)c3ccccc3nc-2cc1Nc1ccc(Cl)cc1 [CFZ, clofazimine] | 2950 |  |  |  | 
CpNDH2 (CpNDH2-WT; MBP-CpNDH2) (Cryptosporidium parvum) |  | 113.7 | 139.3 | 7.17 | 30.0

From publication doi:10.1101/2025.10.07.680968, “Widespread genomic heterogeneity at the type II NAD(P)H dehydrogenase locus predisposes Cryptosporidium to clofazimine resistance” (bioRxiv, 2025)
